Experimental data: the supplement of paper PMC9112550, “Optimization of the antimicrobial peptide Bac7 by deep mutational scanning” (BMC Biology, 2022)

What follows are sequences tested on Escherichia coli TOP10 (assay: shrunken log2 fold change of peptide-encoding DNA abundance (4.5 h post-induction vs induction); higher = less antimicrobial activity (less host growth inhibition)). Details: time post-induction: 4.5 h; library: site-saturation at positions 5, 18, 19, 20.
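Also: peptides expressed intracellularly from a pBAD plasmid library in pooled LB shake-flask culture, induced with 0.3% L-arabinose, DNA abundance read by NGS, three biological replicates, DESeq2 with apeglm shrinkage.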

Sequence | shrunken log2 fold change
RRIRARPPRLPRPRPRPHTWPRP | 0.0641
RRIRLRPPRLPRPRPRPRIHPRP | -0.081
RRIRWRPPRLPRPRPRPMCHPRP | -0.115
RRIRPRPPRLPRPRPRPMKTPRP | -0.0446
RRIRHRPPRLPRPRPRPTTQPRP | -0.0335
RRIRKRPPRLPRPRPRPSAIPRP | -0.00962
RRIRPRPPRLPRPRPRPNSPPRP | -0.255
RRIRIRPPRLPRPRPRPAKWPRP | 0.109
RRIRWRPPRLPRPRPRPKDCPRP | -0.0724
RRIRWRPPRLPRPRPRPSFPPRP | -0.0295
RRIRMRPPRLPRPRPRPIWNPRP | -0.0214
RRIRHRPPRLPRPRPRPECEPRP | 0.16
RRIRRRPPRLPRPRPRPKYSPRP | -0.124
RRIRCRPPRLPRPRPRPAGGPRP | 0.489
RRIRNRPPRLPRPRPRPVSIPRP | -0.0773
RRIRCRPPRLPRPRPRPCAVPRP | -0.29
RRIRMRPPRLPRPRPRPVVCPRP | 0.125
RRIRIRPPRLPRPRPRPAQIPRP | 0.0984
RRIRWRPPRLPRPRPRPTVKPRP | -0.0974
RRIRFRPPRLPRPRPRPMSVPRP | -0.482
RRIRPRPPRLPRPRPRPRREPRP | 0.187
RRIRYRPPRLPRPRPRPHIDPRP | -1.95
RRIRGRPPRLPRPRPRPYVVPRP | -0.0656
RRIRLRPPRLPRPRPRPAPRPRP | 0.816
RRIRPRPPRLPRPRPRPMMRPRP | 0.224

Sequence | shrunken log2 fold change
RRIRTRPPRLPRPRPRPTKRPRP | 0.139
RRIRARPPRLPRPRPRPVPYPRP | -0.0718
RRIRLRPPRLPRPRPRPMSDPRP | 0.0343
RRIRVRPPRLPRPRPRPGPPPRP | 0.564
RRIRVRPPRLPRPRPRPNVNPRP | -0.494
RRIRQRPPRLPRPRPRPSSKPRP | -0.623
RRIRHRPPRLPRPRPRPDWYPRP | -0.061
RRIRPRPPRLPRPRPRPAKDPRP | -0.111
RRIRARPPRLPRPRPRPATNPRP | 0.317
RRIRSRPPRLPRPRPRPVRIPRP | -0.239
RRIRIRPPRLPRPRPRPDMGPRP | -0.0742
RRIRFRPPRLPRPRPRPHGCPRP | -0.064
RRIRSRPPRLPRPRPRPEEQPRP | 0.64
RRIRFRPPRLPRPRPRPAREPRP | 0.612
RRIRDRPPRLPRPRPRPWFSPRP | -0.317
RRIRHRPPRLPRPRPRPVCFPRP | -0.0341
RRIRFRPPRLPRPRPRPVNVPRP | -0.404
RRIRPRPPRLPRPRPRPHSHPRP | 0.00335
RRIRERPPRLPRPRPRPCSIPRP | -0.471
RRIRDRPPRLPRPRPRPAERPRP | -0.0412
RRIRMRPPRLPRPRPRPKPGPRP | 1.31
RRIRQRPPRLPRPRPRPNYMPRP | -0.226
RRIRTRPPRLPRPRPRPETKPRP | 0.00321
RRIRPRPPRLPRPRPRPTCSPRP | 0.265
RRIRDRPPRLPRPRPRPPRDPRP | 0.771

Sequence | shrunken log2 fold change
RRIRERPPRLPRPRPRPFVLPRP | -0.358
RRIRWRPPRLPRPRPRPRMSPRP | 0.139
RRIRHRPPRLPRPRPRPSNHPRP | -0.461
RRIRHRPPRLPRPRPRPRIAPRP | 0.0721
RRIRNRPPRLPRPRPRPESCPRP | 0.073
RRIRDRPPRLPRPRPRPGWIPRP | 0.19
RRIRTRPPRLPRPRPRPQPYPRP | -0.322
RRIRRRPPRLPRPRPRPWQSPRP | -0.0153
RRIRNRPPRLPRPRPRPSEEPRP | 0.0717
RRIRRRPPRLPRPRPRPMISPRP | 0.044
RRIRSRPPRLPRPRPRPEFYPRP | -0.131
RRIRSRPPRLPRPRPRPAFKPRP | -0.333
RRIRTRPPRLPRPRPRPRWQPRP | 0.47
RRIRPRPPRLPRPRPRPTSLPRP | 0.044
RRIRWRPPRLPRPRPRPSSGPRP | -0.00985
RRIRPRPPRLPRPRPRPASYPRP | -0.212
RRIRMRPPRLPRPRPRPIDTPRP | 0.0143
RRIRRRPPRLPRPRPRPGGCPRP | 0.325
RRIRGRPPRLPRPRPRPGAWPRP | 1.56
RRIRWRPPRLPRPRPRPAECPRP | -0.0444
RRIRRRPPRLPRPRPRPRNNPRP | -0.204
RRIRYRPPRLPRPRPRPKKVPRP | -0.141
RRIRKRPPRLPRPRPRPKYWPRP | 0.255
RRIRSRPPRLPRPRPRPLKKPRP | 0.0577
RRIRRRPPRLPRPRPRPDKFPRP | 0.0835
